The values below come from the supplement of paper PMC9112550, “Optimization of the antimicrobial peptide Bac7 by deep mutational scanning” (BMC Biology, 2022).

The test system of this data set is Escherichia coli TOP10. In words: shrunken log2 fold change of peptide-encoding DNA abundance (4.5 h post-induction vs induction); higher = less antimicrobial activity (less host growth inhibition). The note with it: time post-induction: 4.5 h; library: site-saturation at positions 5, 18, 19, 20.
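Note: peptides expressed intracellularly from a pBAD plasmid library in pooled LB shake-flask culture, induced with 0.3% L-arabinose, DNA abundance read by NGS, three biological replicates, DESeq2 with apeglm shrinkage.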

With RRIRERPPRLPRPRPRPGWIPRP, the “shrunken log2 fold change” value was -0.105. The result for RRIRFRPPRLPRPRPRPFLTPRP reads -0.172. Take RRIRKRPPRLPRPRPRPFVSPRP: the “shrunken log2 fold change” value was -0.176. The result for RRIRRRPPRLPRPRPRPAKRPRP reads 0.863. The result for RRIRFRPPRLPRPRPRPTWNPRP reads -0.166. The value for RRIRQRPPRLPRPRPRPPSFPRP was 0.0399; that for RRIRCRPPRLPRPRPRPIWFPRP was 0.21. In the case of RRIRHRPPRLPRPRPRPIPVPRP, the “shrunken log2 fold change” value is -0.037. The result for RRIRERPPRLPRPRPRPAFYPRP reads -0.32. Regarding RRIRIRPPRLPRPRPRPCFNPRP, the “shrunken log2 fold change” value was -0.87.

Take RRIRHRPPRLPRPRPRPSETPRP: the “shrunken log2 fold change” value was -0.0359.

Turning to RRIRHRPPRLPRPRPRPYHLPRP, the “shrunken log2 fold change” value is -0.085.

Take RRIRNRPPRLPRPRPRPSCVPRP: the “shrunken log2 fold change” value was -0.599. The result for RRIRSRPPRLPRPRPRPIEIPRP reads -0.00473; that for RRIRARPPRLPRPRPRPKPVPRP, 0.882. The result for RRIRERPPRLPRPRPRPGGKPRP reads -0.0276. The value for RRIRMRPPRLPRPRPRPLRDPRP was 2.66; that for RRIRERPPRLPRPRPRPHGSPRP was -0.15; that for RRIRGRPPRLPRPRPRPEQWPRP was 0.346. As for RRIRSRPPRLPRPRPRPELPPRP, the “shrunken log2 fold change” value worked out at 0.0311. Take RRIRARPPRLPRPRPRPWYFPRP: the “shrunken log2 fold change” value is -0.332. Regarding RRIRRRPPRLPRPRPRPWMWPRP, the “shrunken log2 fold change” value was determined as 0.0918.

RRIRLRPPRLPRPRPRPQNMPRP: the “shrunken log2 fold change” value was -0.232.

Regarding RRIRPRPPRLPRPRPRPRGMPRP, the “shrunken log2 fold change” value was 0.137. RRIRCRPPRLPRPRPRPWLWPRP: the “shrunken log2 fold change” value amounted to 0.0682. The result for RRIRGRPPRLPRPRPRPWLKPRP reads -0.24. As for RRIRCRPPRLPRPRPRPEVIPRP, the “shrunken log2 fold change” value was -0.083. The result for RRIRNRPPRLPRPRPRPRVGPRP reads 0.0576; that for RRIRDRPPRLPRPRPRPCLNPRP, 0.0235; that for RRIRPRPPRLPRPRPRPKWFPRP, 0.0432.

Take RRIRHRPPRLPRPRPRPNDTPRP: the “shrunken log2 fold change” value is -0.933. On to RRIRRRPPRLPRPRPRPTFEPRP, for which the “shrunken log2 fold change” value was determined as 0.358. Regarding RRIRMRPPRLPRPRPRPREVPRP, the “shrunken log2 fold change” value worked out at 1.8. The result for RRIRYRPPRLPRPRPRPHFSPRP reads -0.256. The value for RRIRMRPPRLPRPRPRPTKNPRP was 1.35; that for RRIRWRPPRLPRPRPRPYWKPRP was -0.123. The result for RRIRKRPPRLPRPRPRPYHAPRP reads 0.0039. As for RRIRMRPPRLPRPRPRPDEAPRP, the “shrunken log2 fold change” value was 2.2. The value for RRIRWRPPRLPRPRPRPISSPRP was -0.0629; that for RRIRMRPPRLPRPRPRPIEPPRP was 0.0361.

RRIRTRPPRLPRPRPRPRMTPRP: the “shrunken log2 fold change” value stood at 0.146. With RRIRWRPPRLPRPRPRPQNEPRP, the “shrunken log2 fold change” value was -0.18. Consider RRIRIRPPRLPRPRPRPSAWPRP, for which the “shrunken log2 fold change” value was 0.0616. The value for RRIRSRPPRLPRPRPRPPYGPRP was -0.401. The result for RRIRRRPPRLPRPRPRPDSNPRP reads 0.0666; that for RRIRWRPPRLPRPRPRPMIYPRP, -0.542; that for RRIRCRPPRLPRPRPRPSQFPRP, -0.787. The value for RRIRPRPPRLPRPRPRPAFQPRP was 0.156. For RRIRCRPPRLPRPRPRPYSWPRP, the “shrunken log2 fold change” value was -0.77. The value for RRIRHRPPRLPRPRPRPEYPPRP was 0.0664. Consider RRIRKRPPRLPRPRPRPWWGPRP, for which the “shrunken log2 fold change” value worked out at 0.0849. The value for RRIRERPPRLPRPRPRPSPFPRP was -0.972; that for RRIRVRPPRLPRPRPRPDGLPRP was 0.0431; that for RRIRHRPPRLPRPRPRPRKDPRP was -0.0956. RRIRIRPPRLPRPRPRPMHKPRP: the “shrunken log2 fold change” value was -0.431.

RRIRCRPPRLPRPRPRPNAMPRP: the “shrunken log2 fold change” value came to 0.0678. The value for RRIRERPPRLPRPRPRPQPVPRP was -0.13; that for RRIRQRPPRLPRPRPRPNMWPRP was -0.419. The value for RRIRFRPPRLPRPRPRPPFWPRP was 0.538.

In the case of RRIRWRPPRLPRPRPRPIHCPRP, the “shrunken log2 fold change” value was 0.0948. The result for RRIRRRPPRLPRPRPRPPLAPRP reads 1.18; that for RRIRYRPPRLPRPRPRPPVMPRP, -0.355; that for RRIRYRPPRLPRPRPRPRRGPRP, 0.114.

Regarding RRIRTRPPRLPRPRPRPDLHPRP, the “shrunken log2 fold change” value was -0.174. As to RRIRSRPPRLPRPRPRPVDQPRP, the “shrunken log2 fold change” value is 0.034.

For the sequence RRIRCRPPRLPRPRPRPFWIPRP, the “shrunken log2 fold change” value is -0.513.

Regarding RRIRKRPPRLPRPRPRPIKMPRP, the “shrunken log2 fold change” value turned out to be 0.0326. The result for RRIRWRPPRLPRPRPRPYHPPRP reads -1.08; that for RRIRSRPPRLPRPRPRPKPNPRP, 0.217; that for RRIRSRPPRLPRPRPRPLFRPRP, -0.368. The value for RRIRGRPPRLPRPRPRPWMAPRP was 0.439; that for RRIRQRPPRLPRPRPRPRSQPRP was 0.0421. The value for RRIRDRPPRLPRPRPRPLWKPRP was 0.0179; that for RRIRPRPPRLPRPRPRPHWYPRP was -0.165. Turning to RRIRHRPPRLPRPRPRPLNGPRP, the “shrunken log2 fold change” value was -0.178. The result for RRIRTRPPRLPRPRPRPNDWPRP reads -0.385; that for RRIRARPPRLPRPRPRPSDGPRP, 0.0321. The value for RRIRHRPPRLPRPRPRPPEIPRP was 0.0979; that for RRIRDRPPRLPRPRPRPVHAPRP was 0.209. The value for RRIRMRPPRLPRPRPRPDKIPRP was 0.179; that for RRIRQRPPRLPRPRPRPDRYPRP was 0.0513; that for RRIRHRPPRLPRPRPRPAYWPRP was 2.61. As to RRIRSRPPRLPRPRPRPSSSPRP, the “shrunken log2 fold change” value is -0.353. In the case of RRIRDRPPRLPRPRPRPVCLPRP, the “shrunken log2 fold change” value was 0.345. The result for RRIRMRPPRLPRPRPRPRGVPRP reads 1.23; that for RRIRDRPPRLPRPRPRPNCIPRP, -0.00269; that for RRIRYRPPRLPRPRPRPDNDPRP, -0.17. The value for RRIRLRPPRLPRPRPRPFSGPRP was -0.374. The result for RRIRNRPPRLPRPRPRPVDPPRP reads 0.0584; that for RRIRFRPPRLPRPRPRPRFDPRP, -0.248.

With RRIRSRPPRLPRPRPRPVWIPRP, the “shrunken log2 fold change” value turned out to be 0.0104. In the case of RRIRARPPRLPRPRPRPDRNPRP, the “shrunken log2 fold change” value was -0.066. Turning to RRIRGRPPRLPRPRPRPVIAPRP, the “shrunken log2 fold change” value was found to be 0.506.

For RRIRKRPPRLPRPRPRPHDFPRP, the “shrunken log2 fold change” value was -0.0488. With RRIRKRPPRLPRPRPRPFRNPRP, the “shrunken log2 fold change” value was -0.309. The value for RRIRQRPPRLPRPRPRPDQFPRP was 0.133; that for RRIRRRPPRLPRPRPRPHLPPRP was 0.141. Turning to RRIRTRPPRLPRPRPRPMLPPRP, the “shrunken log2 fold change” value was -0.0543. The result for RRIRFRPPRLPRPRPRPDIMPRP reads -0.06. The result for RRIRKRPPRLPRPRPRPGSEPRP reads 0.66; that for RRIRERPPRLPRPRPRPQDHPRP, -0.0577. The result for RRIRDRPPRLPRPRPRPKQNPRP reads 0.277. In the case of RRIRQRPPRLPRPRPRPKVHPRP, the “shrunken log2 fold change” value was -0.0859. The result for RRIRCRPPRLPRPRPRPDGMPRP reads -0.239; that for RRIRHRPPRLPRPRPRPCLYPRP, -0.057.

In the case of RRIRPRPPRLPRPRPRPPSRPRP, the “shrunken log2 fold change” value turned out to be 0.353. For the sequence RRIRYRPPRLPRPRPRPYQGPRP, the “shrunken log2 fold change” value was 0.00408. The value for RRIRERPPRLPRPRPRPRKYPRP was -0.201; that for RRIRSRPPRLPRPRPRPGCVPRP was 0.247. The result for RRIRVRPPRLPRPRPRPTDQPRP reads -0.0162; that for RRIRIRPPRLPRPRPRPNRVPRP, -0.0802. In the case of RRIRMRPPRLPRPRPRPTAFPRP, the “shrunken log2 fold change” value came out at 0.206. The value for RRIRNRPPRLPRPRPRPNDTPRP was -0.236; that for RRIRNRPPRLPRPRPRPNEGPRP was 0.000589; that for RRIRQRPPRLPRPRPRPLRSPRP was 0.208.

For RRIRYRPPRLPRPRPRPAYVPRP, the “shrunken log2 fold change” value is -0.296.

For the sequence RRIRERPPRLPRPRPRPGQLPRP, the “shrunken log2 fold change” value was -0.131. The result for RRIRYRPPRLPRPRPRPYSTPRP reads -0.648. Take RRIRKRPPRLPRPRPRPLEAPRP: the “shrunken log2 fold change” value was 0.505. For RRIRYRPPRLPRPRPRPQGFPRP, the “shrunken log2 fold change” value is -0.0121. The value for RRIRGRPPRLPRPRPRPMSEPRP was 0.286; that for RRIRQRPPRLPRPRPRPKINPRP was -0.354; that for RRIRYRPPRLPRPRPRPSFAPRP was -0.332. The result for RRIRIRPPRLPRPRPRPLAGPRP reads 0.00712; that for RRIRMRPPRLPRPRPRPLTFPRP, -0.291.
